The values that follow come from PMC8232910.

The experiment deals with EccD5 (Mycobacterium xenopi ESX-5 type VII secretion system) (Mycobacterium xenopi). The experiment in a line: cryo-EM structure; purified ESX-5 complex (void peak fraction) in 20 mM tris (pH 8), 150 mM NaCl; C6 global map 3.4 Å and locally refined map of the cytosolic part 3.0 Å; de novo atomic model of the transmembrane and membrane-adjacent cytoplasmic regions.

Regarding “EccD5 (Mycobacterium xenopi ESX-5 type VII secretion system) (natural protein)”, the stoichiometry N – broadly, a count of units in the complex or per binding partner – amounted to 2.
